The target in assay [1] is Med15 1–651 Δ239–272, Δ373–483 (KIX123) (yeast) (UniProt P19659). In words: fluorescence polarisation. (Polarisation of emitted light reports the rotation of a fluorescent probe.)
Assay [2] deals with Med15 158–651 Δ239–272, Δ373–483 (ABD123) (yeast) (UniProt P19659). The experiment in a line: fluorescence polarisation.
The target in assay [3] is Med15 activator-binding domain 2 (ABD2; residues 277–368) (yeast) (UniProt P19659). The experiment in a line: ITC + fluorescence polarisation.

In turn, “Gcn4 tandem activation domains (tAD; residues 1–134) (from UniProt P03069 1-134) (domain or fragment)” gave an increase of affinity over ABD123 in assay [1] of 30%. In assay [2], the fold higher affinity than the strongest piecemeal interaction came to 20 fold.

With “Gcn4 central activation domain (cAD; residues 101–134) (from UniProt P03069 101-134) (domain or fragment)”, in assay [3], the Kd amounted to 150 µM.

The term Kd denotes the constant that tells how readily two partners part at equilibrium.
